{"source": "paper doi:10.1101/2023.10.12.561995", "about": "(bioRxiv, 2023)", "key": {"[1]": {"molecular_target": "T1, SARS-CoV-2 RBD (wildtype), residues 319-541 of S-protein (SARS-CoV-2 wildtype, UniProt P0DTC2)", "experiment": "BLI"}, "[2]": {"molecular_target": "T1, SARS-CoV-2 RBD (wildtype), residues …", "experiment": "cell-based or functional assay"}}}
{"binder": "R1-26 (mAb, human IgG1) (antibody, V domains shown) VH: EVQLVESGGGLVQPGGSLRLSCAASGFTFSSYWMSWVRQAPGKGLEWVANIKQDGSEKYYVDSVKGRFTISRDNAKNSLYLQMNSLRAEDTAVYYCARGQLGPWVGVDYWGQGTLVTVSS VL: NFMLTQPHSVSESPGKTVTISCTGSSGSIASNYVQWYQQRPGSAPTTVIYEDNQRPSGVPDRFSGSIDSSSNSASLTISGLKTEDEADYYCQSYDSSNWVFGGGTQLTVL", "values": [{"measurement": "Kd", "setting": "[1]", "result": 3.8, "unit": "nM"}, {"measurement": "neutralisation of a pseudovirus displaying WT SARS-CoV-2 S-protein, IC50", "setting": "[2]", "result": 2.7, "unit": "nM"}]}
